# ± gives the uncertainty stated by the source.
# B1: Retinoic acid receptor beta, residues 85 to 161; numbered along this chain, P10826 (parent)
# chain: YKPCFVCQDKSSGYHYGVSACEGCKGFFRRSIQKNMIYTCHRDKNCVINKVTRNRCQYCRLQKCFEVGMSKESVRND
# Variants of: B1
# Assay: abundance fitness (aPCA) (normalised: wild type 0, dead -1); higher = more abundant; growth selection in yeast, the domain comes from the species named
# Settings: Homo sapiens
row,Variant,abundance fitness
1,YKPCFVCQDKSSGYHYGVSACEGCKGFFRRSIQKNMIYTCHRDKNCQINKVTRNRCQYCRLQKCFEVGMSKESVRND,0.026 ± 0.049
2,YKPCFVCQDKSSGYHYGVSACEGCKGFFRRSIQKNMIYTCHRDKNCFINKVTRNRCQYCRLQKCFEVGMSKESVRND,-0.11 ± 0.057
3,YKPCFVCQDKSSGYHYGVSACEGCKGFFRRSIQKNMIYTCHRDKNCHINKVTRNRCQYCRLQKCFEVGMSKESVRND,-0.077 ± 0.049
4,YKPCFVCQDKSSGYHYGVSACEGCKGFFRRSIQKNMIYTCHRDKNCAINKVTRNRCQYCRLQKCFEVGMSKESVRND,0.058 ± 0.042
5,YKPCFVCQDKSSGYHYGVSACEGCKGFFRRSIQKNMIYTCHRDKNCRINKVTRNRCQYCRLQKCFEVGMSKESVRND,-0.075 ± 0.037
6,YKPCFVCQDKSSGYHYGVSACEGCKGFFRRSIQKNMIYTCHRDKNCSINKVTRNRCQYCRLQKCFEVGMSKESVRND,0.024 ± 0.033
7,YKPCFVCQDKSSGYHYGVSACEGCKGFFRRSIQKNMIYTCHRDKNCWINKVTRNRCQYCRLQKCFEVGMSKESVRND,-0.048 ± 0.048
8,YKPCFVCQDKSSGYHYGVSACEGCKGFFRRSIQKNMIYTCHRDKNCPINKVTRNRCQYCRLQKCFEVGMSKESVRND,0.043 ± 0.041
9,YKPCFVCQDKSSGYHYGVSACEGCKGFFRRSIQKNMIYTCHRDKNCLINKVTRNRCQYCRLQKCFEVGMSKESVRND,0.03 ± 0.033
10,YKPCFVCQDKSSGYHYGVSACEGCKGFFRRSIQKNMIYTCHRDKNCCINKVTRNRCQYCRLQKCFEVGMSKESVRND,0.003 ± 0.044
11,YKPCFVCQDKSSGYHYGVSACEGCKGFFRRSIQKNMIYTCHRDKNCDINKVTRNRCQYCRLQKCFEVGMSKESVRND,0.168 ± 0.063
12,YKPCFVCQDKSSGYHYGVSACEGCKGFFRRSIQKNMIYTCHRDKNCGINKVTRNRCQYCRLQKCFEVGMSKESVRND,-0.096 ± 0.043
13,YKPCFVCQDKSSGYHYGVSACEGCKGFFRRSIQKNMIYTCHRDKNCNINKVTRNRCQYCRLQKCFEVGMSKESVRND,-0.103 ± 0.066
14,YKPCFVCQDKSSGYHYGVSACEGCKGFFRRSIQKNMIYTCHRDKNCTINKVTRNRCQYCRLQKCFEVGMSKESVRND,0.056 ± 0.038
15,YKPCFVCQDKSSGYHYGVSACEGCKGFFRRSIQKNMIYTCHRDKNCYINKVTRNRCQYCRLQKCFEVGMSKESVRND,0.107 ± 0.053
16,YKPCFVCQDKSSGYHYGVSACEGCKGFFRRSIQKNMIYTCHRDKNCIINKVTRNRCQYCRLQKCFEVGMSKESVRND,-0.082 ± 0.044
17,YKPCFVCQDKSSGYHYGVSACEGCKGFFRRSIQKNMIYTCHRDKNCMINKVTRNRCQYCRLQKCFEVGMSKESVRND,0.075 ± 0.047
18,YKPCFVCQDKSSGYHYGVSACEGCKGFFRRSIQKNMIYTCHRDKNCVINNVTRNRCQYCRLQKCFEVGMSKESVRND,0.021 ± 0.085

row,Variant,abundance fitness
1,YKPCFVCQDKSSGYHYGVSACEGCKGFFRRSIQKNMIYTCHRDKNCVINGVTRNRCQYCRLQKCFEVGMSKESVRND,0.153 ± 0.064
2,YKPCFVCQDKSSGYHYGVSACEGCKGFFRRSIQKNMIYTCHRDKNCVINTVTRNRCQYCRLQKCFEVGMSKESVRND,0.125 ± 0.058
3,YKPCFVCQDKSSGYHYGVSACEGCKGFFRRSIQKNMIYTCHRDKNCVINDVTRNRCQYCRLQKCFEVGMSKESVRND,0.225 ± 0.12
4,YKPCFVCQDKSSGYHYGVSACEGCKGFFRRSIQKNMIYTCHRDKNCVINYVTRNRCQYCRLQKCFEVGMSKESVRND,0.126 ± 0.08
5,YKPCFVCQDKSSGYHYGVSACEGCKGFFRRSIQKNMIYTCHRDKNCVINMVTRNRCQYCRLQKCFEVGMSKESVRND,0.124 ± 0.069
6,YKPCFVCQDKSSGYHYGVSACEGCKGFFRRSIQKNMIYTCHRDKNCVINQVTRNRCQYCRLQKCFEVGMSKESVRND,0.158 ± 0.043
7,YKPCFVCQDKSSGYHYGVSACEGCKGFFRRSIQKNMIYTCHRDKNCVINRVTRNRCQYCRLQKCFEVGMSKESVRND,0.153 ± 0.051
8,YKPCFVCQDKSSGYHYGVSACEGCKGFFRRSIQKNMIYTCHRDKNCVINIVTRNRCQYCRLQKCFEVGMSKESVRND,0.244 ± 0.074
9,YKPCFVCQDKSSGYHYGVSACEGCKGFFRRSIQKNMIYTCHRDKNCVINWVTRNRCQYCRLQKCFEVGMSKESVRND,0.25 ± 0.078
10,YKPCFVCQDKSSGYHYGVSACEGCKGFFRRSIQKNMIYTCHRDKNCVINAVTRNRCQYCRLQKCFEVGMSKESVRND,0.145 ± 0.052
11,YKPCFVCQDKSSGYHYGVSACEGCKGFFRRSIQKNMIYTCHRDKNCVINPVTRNRCQYCRLQKCFEVGMSKESVRND,0.09 ± 0.044
12,YKPCFVCQDKSSGYHYGVSACEGCKGFFRRSIQKNMIYTCHRDKNCVINVVTRNRCQYCRLQKCFEVGMSKESVRND,0.208 ± 0.06
13,YKPCFVCQDKSSGYHYGVSACEGCKGFFRRSIQKNMIYTCHRDKNCVINCVTRNRCQYCRLQKCFEVGMSKESVRND,-0.218 ± 0.11
14,YKPCFVCQDKSSGYHYGVSACEGCKGFFRRSIQKNMIYTCHRDKNCVINSVTRNRCQYCRLQKCFEVGMSKESVRND,0.231 ± 0.044
15,YKPCFVCQDKSSGYHYGVSACEGCKGFFRRSIQKNMIYTCHRDKNCVINHVTRNRCQYCRLQKCFEVGMSKESVRND,0.094 ± 0.059
16,YKPCFVCQDKSSGYHYGVSACEGCKGFFRRSIQKNMIYTCHRDKNCVINKATRNRCQYCRLQKCFEVGMSKESVRND,-0.115 ± 0.08
17,YKPCFVCQDKSSGYHYGVSACEGCKGFFRRSIQKNMIYTCHRDKNCVINKCTRNRCQYCRLQKCFEVGMSKESVRND,-0.249 ± 0.11
